Bridges are numbered along the chain shown (N, C = ends). Where no end group is shown, it is not given here.
Columns and labels:
[1] = target: T1, mouse R-cadherin fused to Red Fluorescent Protein, on stably transfected L-cells (mouse, UniProt P39038 167-913); assay: cell-based or functional assay
T1 sequence (looked up): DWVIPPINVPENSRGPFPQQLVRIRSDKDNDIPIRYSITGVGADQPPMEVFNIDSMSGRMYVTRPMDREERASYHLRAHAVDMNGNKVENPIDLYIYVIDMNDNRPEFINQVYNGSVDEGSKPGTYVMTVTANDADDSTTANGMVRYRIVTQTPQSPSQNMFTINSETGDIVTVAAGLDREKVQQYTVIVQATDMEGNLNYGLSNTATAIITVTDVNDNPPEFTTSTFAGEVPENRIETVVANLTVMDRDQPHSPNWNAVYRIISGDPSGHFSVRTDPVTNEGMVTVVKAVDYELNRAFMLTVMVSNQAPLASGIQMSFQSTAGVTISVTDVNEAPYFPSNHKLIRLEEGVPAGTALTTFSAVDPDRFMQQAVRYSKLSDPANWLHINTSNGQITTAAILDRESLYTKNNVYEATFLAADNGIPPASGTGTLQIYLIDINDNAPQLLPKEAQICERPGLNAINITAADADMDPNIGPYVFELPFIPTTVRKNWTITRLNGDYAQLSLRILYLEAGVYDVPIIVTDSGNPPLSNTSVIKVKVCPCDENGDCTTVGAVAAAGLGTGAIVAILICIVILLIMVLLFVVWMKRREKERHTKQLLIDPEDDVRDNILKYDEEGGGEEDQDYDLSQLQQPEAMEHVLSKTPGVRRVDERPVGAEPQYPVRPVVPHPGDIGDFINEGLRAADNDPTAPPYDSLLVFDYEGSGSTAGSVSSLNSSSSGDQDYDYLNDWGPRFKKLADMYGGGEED

[2] = target: T2, mouse N-cadherin fused to Red Fluorescent Protein, on stably transfected L-cells (mouse, UniProt P15116 160-906); assay: cell-based or functional assay
T2 sequence (looked up): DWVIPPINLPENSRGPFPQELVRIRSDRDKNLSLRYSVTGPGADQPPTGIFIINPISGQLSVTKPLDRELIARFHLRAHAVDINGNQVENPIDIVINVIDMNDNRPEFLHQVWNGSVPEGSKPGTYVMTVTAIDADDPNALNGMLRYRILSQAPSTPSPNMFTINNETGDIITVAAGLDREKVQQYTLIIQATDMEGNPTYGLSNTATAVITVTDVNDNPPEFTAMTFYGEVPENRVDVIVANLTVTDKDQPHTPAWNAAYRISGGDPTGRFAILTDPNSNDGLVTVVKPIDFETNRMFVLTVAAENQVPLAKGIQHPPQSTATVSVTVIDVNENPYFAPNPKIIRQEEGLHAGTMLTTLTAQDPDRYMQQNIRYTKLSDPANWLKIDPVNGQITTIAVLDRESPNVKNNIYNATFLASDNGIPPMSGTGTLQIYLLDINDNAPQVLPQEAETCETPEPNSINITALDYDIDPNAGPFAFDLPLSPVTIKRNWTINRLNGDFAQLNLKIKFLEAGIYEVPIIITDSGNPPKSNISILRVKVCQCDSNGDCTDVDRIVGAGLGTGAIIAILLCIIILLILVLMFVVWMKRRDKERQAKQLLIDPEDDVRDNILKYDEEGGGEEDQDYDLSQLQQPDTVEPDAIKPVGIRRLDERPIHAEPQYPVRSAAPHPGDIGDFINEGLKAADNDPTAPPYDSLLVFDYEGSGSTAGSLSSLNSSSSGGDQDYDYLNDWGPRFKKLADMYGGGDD

Binder	IC50 of inhibition of R-cadherin mediated L-cell aggregation [1] [µM]	IC50 of inhibition of N-cadherin mediated L-cell aggregation [2] [µM]	IC50 of inhibition of R-cadherin mediated L-cell adhesion (aggregation) [1] [µM]	effectiveness relative to cyclic IDS in the aggregation assay [1] [fold lower]
CHAVC (disulfide 1-5) [cyclic HAV peptide (CHAVC, SEQ ID NO: 20)]	150 to 200	150 to 200		
CIDSC (disulfide 1-5; not fully specified) [cyclic CIDSC (SEQ ID NO: 8)]	~300			
IDSMSGR (not fully specified) [IDSMSGR (SEQ ID NO: 2)]			~900	~3
CINPC (disulfide 1-5; not fully specified) [cyclic CINPC (SEQ ID NO: 9)]		< 300		
